Source: the supplement of paper PMC6757056
± gives the standard deviation of the averaged measurements.

B1: library; a variant is named by its letters at N, in order (parent)
chain: GCUGUCACCGGUGCUUGGUACGUUAUAUUCAGCCGGUCUGAUGAGUCUNNNNNNAGACGAAACAGC

Legend:
(6R,S)-folinic acid [1] = variants of: B1; experiment: normalized RNA/DNA level without ligand (relative to sTRSVctl = 100) (log10 (% of sTRSVctl)); HEK293T overexpressing SLC46A1; higher = less ribozyme self-cleavage, higher mRNA level; details: without (6R,S)-folinic acid; ligand present: no
How it was run: (§1)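 Library plasmids encoding reporter-linked ribozyme switches (mCherry, or eGFP for some folinic acid experiments) were transfected into HEK293T at 4 µg per 6-well well. Ligand, when used, was added 1 h before transfection. Total RNA was extracted with EDTA 72 h later, then reverse-transcribed, amplified, barcoded and sequenced. RNA level was RNA reads over DNA reads, divided by a spiked-in non-cleaving control (or the top 25 sequences), ×100, log10; only sequences with ≥100 DNA reads were kept.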

(6R,S)-folinic acid [2] = variants of: B1; experiment: normalized RNA/DNA level with ligand (relative to sTRSVctl = 100) (log10 (% of sTRSVctl)); HEK293T overexpressing SLC46A1; ligand concentration (+) RNA-Seq: 6 mM; higher = less ribozyme self-cleavage, higher mRNA level; details: with (6R,S)-folinic acid; ligand present: yes
How it was run: as §1

What does the source list for GCUGUCACCGGUGCUUGGUACGUUAUAUUCAGCCGGUCUGAUGAGUCUGAUUGGAGACGAAACAGC [GAUUGG]?
normalized RNA/DNA level without ligand (log10) ((6R,S)-folinic acid [1]): 1.973 ± 0.017; normalized RNA/DNA level with ligand (log10) ((6R,S)-folinic acid [2]): 2.028 ± 0.019

Which “normalized RNA/DNA level without ligand (log10)” value ((6R,S)-folinic acid [1]) does the source give for GCUGUCACCGGUGCUUGGUACGUUAUAUUCAGCCGGUCUGAUGAGUCUGAUUGCAGACGAAACAGC [GAUUGC] here?
Its value is 1.974 ± 0.015.

What about the “normalized RNA/DNA level with ligand (log10)” value ((6R,S)-folinic acid [2]) of the same variant?
The value was 2 ± 0.036.

Which results are given for GCUGUCACCGGUGCUUGGUACGUUAUAUUCAGCCGGUCUGAUGAGUCUAAUUUAAGACGAAACAGC [AAUUUA]?
normalized RNA/DNA level without ligand (log10) ((6R,S)-folinic acid [1]): 1.966 ± 0.012; normalized RNA/DNA level with ligand (log10) ((6R,S)-folinic acid [2]): 1.99 ± 0.02

How did the “normalized RNA/DNA level without ligand (log10)” value ((6R,S)-folinic acid [1]) turn out when GCUGUCACCGGUGCUUGGUACGUUAUAUUCAGCCGGUCUGAUGAGUCUAAUUUCAGACGAAACAGC [AAUUUC] was run?
The value was 2.031 ± 0.0025.

What about the “normalized RNA/DNA level with ligand (log10)” value ((6R,S)-folinic acid [2]) of the same variant?
The value was 2.01 ± 0.049.

How did the “normalized RNA/DNA level without ligand (log10)” value ((6R,S)-folinic acid [1]) turn out when GCUGUCACCGGUGCUUGGUACGUUAUAUUCAGCCGGUCUGAUGAGUCUAAUUGCAGACGAAACAGC [AAUUGC] was run?
Its value is 2.006 ± 0.0074.

And the “normalized RNA/DNA level with ligand (log10)” value ((6R,S)-folinic acid [2])?
The value was 2.01 ± 0.039.

With GCUGUCACCGGUGCUUGGUACGUUAUAUUCAGCCGGUCUGAUGAGUCUCAUUGCAGACGAAACAGC [CAUUGC] as the variant, how does the “normalized RNA/DNA level without ligand (log10)” value ((6R,S)-folinic acid [1]) read?
The value was 2.021 ± 0.0021.

What about the “normalized RNA/DNA level with ligand (log10)” value ((6R,S)-folinic acid [2]) of the same variant?
Its value is 1.99 ± 0.019.

Which results are given for GCUGUCACCGGUGCUUGGUACGUUAUAUUCAGCCGGUCUGAUGAGUCUCAUUGGAGACGAAACAGC [CAUUGG]?
normalized RNA/DNA level without ligand (log10) ((6R,S)-folinic acid [1]): 1.955 ± 0.011; normalized RNA/DNA level with ligand (log10) ((6R,S)-folinic acid [2]): 2.01 ± 0.026

How did the “normalized RNA/DNA level without ligand (log10)” value ((6R,S)-folinic acid [1]) turn out when GCUGUCACCGGUGCUUGGUACGUUAUAUUCAGCCGGUCUGAUGAGUCUCAUUGAAGACGAAACAGC [CAUUGA] was run?
The value was 2.019 ± 0.0027.

What about the “normalized RNA/DNA level with ligand (log10)” value ((6R,S)-folinic acid [2]) of the same variant?
Its value is 2.01 ± 0.055.

Which results are given for GCUGUCACCGGUGCUUGGUACGUUAUAUUCAGCCGGUCUGAUGAGUCUCAUUGUAGACGAAACAGC [CAUUGU]?
normalized RNA/DNA level without ligand (log10) ((6R,S)-folinic acid [1]): 2.012 ± 0.0069; normalized RNA/DNA level with ligand (log10) ((6R,S)-folinic acid [2]): 2.02 ± 0.064

Which results are given for GCUGUCACCGGUGCUUGGUACGUUAUAUUCAGCCGGUCUGAUGAGUCUUAUUGUAGACGAAACAGC [UAUUGU]?
normalized RNA/DNA level without ligand (log10) ((6R,S)-folinic acid [1]): 1.888 ± 0.012; normalized RNA/DNA level with ligand (log10) ((6R,S)-folinic acid [2]): 2.005 ± 0.017

Which results are given for GCUGUCACCGGUGCUUGGUACGUUAUAUUCAGCCGGUCUGAUGAGUCUUAUUGCAGACGAAACAGC [UAUUGC]?
normalized RNA/DNA level without ligand (log10) ((6R,S)-folinic acid [1]): 1.941 ± 0.011; normalized RNA/DNA level with ligand (log10) ((6R,S)-folinic acid [2]): 1.96 ± 0.034

Which “normalized RNA/DNA level without ligand (log10)” value ((6R,S)-folinic acid [1]) does the source give for GCUGUCACCGGUGCUUGGUACGUUAUAUUCAGCCGGUCUGAUGAGUCUUAUUUAAGACGAAACAGC [UAUUUA] here?
Its value is 1.98 ± 0.024.

And the “normalized RNA/DNA level with ligand (log10)” value ((6R,S)-folinic acid [2])?
The value was 2.01 ± 0.021.

Which results are given for GCUGUCACCGGUGCUUGGUACGUUAUAUUCAGCCGGUCUGAUGAGUCUCAUUUAAGACGAAACAGC [CAUUUA]?
normalized RNA/DNA level without ligand (log10) ((6R,S)-folinic acid [1]): 1.97 ± 0.013; normalized RNA/DNA level with ligand (log10) ((6R,S)-folinic acid [2]): 1.999 ± 0.013

For GCUGUCACCGGUGCUUGGUACGUUAUAUUCAGCCGGUCUGAUGAGUCUCAUUUCAGACGAAACAGC [CAUUUC], which “normalized RNA/DNA level without ligand (log10)” value ((6R,S)-folinic acid [1]) is on record?
Its value is 2.036 ± 0.0064.

And the “normalized RNA/DNA level with ligand (log10)” value ((6R,S)-folinic acid [2])?
Its value is 2 ± 0.037.

Which “normalized RNA/DNA level without ligand (log10)” value ((6R,S)-folinic acid [1]) does the source give for GCUGUCACCGGUGCUUGGUACGUUAUAUUCAGCCGGUCUGAUGAGUCUCAUUCUAGACGAAACAGC [CAUUCU] here?
The value was 2.022 ± 0.0089.

And the “normalized RNA/DNA level with ligand (log10)” value ((6R,S)-folinic acid [2])?
The value was 2.01 ± 0.056.

What does the source list for GCUGUCACCGGUGCUUGGUACGUUAUAUUCAGCCGGUCUGAUGAGUCUUAUUCGAGACGAAACAGC [UAUUCG]?
normalized RNA/DNA level without ligand (log10) ((6R,S)-folinic acid [1]): 1.735 ± 0.0046; normalized RNA/DNA level with ligand (log10) ((6R,S)-folinic acid [2]): 1.94 ± 0.063

GCUGUCACCGGUGCUUGGUACGUUAUAUUCAGCCGGUCUGAUGAGUCUUAUUCUAGACGAAACAGC [UAUUCU] was tested. Which “normalized RNA/DNA level without ligand (log10)” value ((6R,S)-folinic acid [1]) did it give?
The value was 1.99 ± 0.039.

What about the “normalized RNA/DNA level with ligand (log10)” value ((6R,S)-folinic acid [2]) of the same variant?
Its value is 2.04 ± 0.048.

How did the “normalized RNA/DNA level without ligand (log10)” value ((6R,S)-folinic acid [1]) turn out when GCUGUCACCGGUGCUUGGUACGUUAUAUUCAGCCGGUCUGAUGAGUCUGAUUUGAGACGAAACAGC [GAUUUG] was run?
The value was 1.95 ± 0.023.

What about the “normalized RNA/DNA level with ligand (log10)” value ((6R,S)-folinic acid [2]) of the same variant?
Its value is 2.03 ± 0.047.

How did the “normalized RNA/DNA level without ligand (log10)” value ((6R,S)-folinic acid [1]) turn out when GCUGUCACCGGUGCUUGGUACGUUAUAUUCAGCCGGUCUGAUGAGUCUGAUUUCAGACGAAACAGC [GAUUUC] was run?
Its value is 2.055 ± 0.017.

What about the “normalized RNA/DNA level with ligand (log10)” value ((6R,S)-folinic acid [2]) of the same variant?
Its value is 2 ± 0.03.

GCUGUCACCGGUGCUUGGUACGUUAUAUUCAGCCGGUCUGAUGAGUCUAAUUCUAGACGAAACAGC [AAUUCU] was tested. Which “normalized RNA/DNA level without ligand (log10)” value ((6R,S)-folinic acid [1]) did it give?
Its value is 2.0312 ± 0.0016.

What about the “normalized RNA/DNA level with ligand (log10)” value ((6R,S)-folinic acid [2]) of the same variant?
Its value is 2.03 ± 0.027.

Which “normalized RNA/DNA level without ligand (log10)” value ((6R,S)-folinic acid [1]) does the source give for GCUGUCACCGGUGCUUGGUACGUUAUAUUCAGCCGGUCUGAUGAGUCUAAUUCGAGACGAAACAGC [AAUUCG] here?
Its value is 1.974 ± 0.012.

And the “normalized RNA/DNA level with ligand (log10)” value ((6R,S)-folinic acid [2])?
The value was 2.03 ± 0.038.
